Data from US20180051053A1.

Molecular target: Protein G (Protein G UltraLink resin, Pierce) (group G streptococci) (UniProt P19909)
Experiment: depletion of 100 µg IgG by Protein G resin beads (10 µL suspension); supernatant read by SDS-PAGE band pixels

remaining antibody amount (unbound IgG left in supernatant): 3%
Substance: IgG (antibody)
